Laboratory results taken from patent US20110044994A1 (THERACLONE SCIENCES, published 2011).
Numbering of substitutions follows the chain as printed.

B1: 1496_C09 (PG9) (antibody, V domains shown)
VH: QRLVESGGGVVQPGSSLRLSCAASGFDFSRQGMHWVRQAPGQGLEWVAFIKYDGSEKYHADSVWGRLSISRDNSKDTLYLQMNSLRVEDTATYFCVREAGGPDYRNGYNYYDFYDGYYNYHYMDVWGKGTTVTVSS
VL: QSALTQPASVSGSPGQSITISCNGTSNDVGGYESVSWYQQHPGKAPKVVIYDVSKRPSGVSNRFSGSKSGNTASLTISGLQAEDEGDYYCKSLTSTRRRVFGTGTKLTVLG
B2: 1443_C16 (PG16) (antibody, V domains shown)
VH: QEQLVESGGGVVQPGGSLRLSCLASGFTFHKYGMHWVRQAPGKGLEWVALISDDGMRKYHSDSMWGRVTISRDNSKNTLYLQFSSLKVEDTAMFFCAREAGGPIWHDDVKYYDFNDGYYNYHYMDVWGKGTTVTVSS
VL: QSALTQPASVSGSPGQTITISCNGTSSDVGGFDSVSWYQQSPGKAPKVMVFDVSHRPSGISNRFSGSKSGNTASLTISGLHIEDEGDYFCSSLTDRSHRIFGGGTKVTVLG
B3: 1495_C14 (PGC14) (antibody, human IgG1, lambda, V domains shown)
VH: DGHLVQSGVEVKKTGATVKISCKVSGYSFIDYYLHWVQRAPGKGLEWVGLIDPENGEARYAEKFQGRVTIIADTSIDTGYMEMRSLKSEDTAVYFCAAGAVGADSGSWFDPWGQGTLVTVSS
VL: SYELTQPPSVSVSPGQTASITCSGSKLGDKYVSWYQLRPGQSPILVMYENDRRPSGIPERFSGSNSGDTATLTISGTQALDEADFYCQAWETTTTTFVFFGGGTQLTVLG
B4: 1456_P20 (PG20) (antibody, human IgG1, kappa, V domains shown)
VH: QVRLVQSGPEVKKPGSSVTVSCQASGGTFSSYAFTWVRQAPGQGLEWLGMVTPIFGEAKYSQRFEGRVTITADESTSTTSIELRGLTSEDTAIYYCARDRRAVPIATDNWLDPWGQGTLVTVSS
VL: DIQLTQSPSSLSASVGDRVSITCRASQTINNYLNWYQQTPGKAPKLLIYGASNLQNGVPSRFSGSGSGTDFTLTISSLQPEDFATYYCQQSFSTPRTFGQGTRLDIKR
B5: 1460_G14 (PGG14) (antibody, human IgG1, kappa, V domains shown)
VH: QVLLVQSGTEVKKPGSSVKVSCQASGGAFSSYAFSWVRQAPGQGLEWMGMITPVFGETKYAPRFQGRLTLTAEESLSTTYMELRSLTSDDTAFYYCTRDRRVVPMATDNWLDPWGQGTLVTVSS
VL: B4 VL with S20T, I21V, N30H, N31T, T39I, N53T, N56S, S76N, F92Y

Columns and labels:
[1] = molecular target: ADA pseudovirus Env (HIV-1); test: cell-based or functional assay
[2] = molecular target: 92RW020 pseudovirus Env (HIV-1); test: cell-based or functional assay
[3] = molecular target: T1, recombinant gp41HxB2 (HIV-1, UniProt P04578 541-682); test: ELISA screen of B cell culture supernatants
T1 construct: domain: gp41

[4] = molecular target: JR-CSF pseudovirus (HIV-1 Env on the virions) (HIV-1, UniProt P20871 32-848); test: cell-based or functional assay
[5] = molecular target: JR-FL (E168K) pseudovirus Env (HIV-1); test: cell-based or functional assay
[6] = molecular target: T2, recombinant, monomeric gp120JR-CSF (HIV-1, UniProt P20871 32-503); test: ELISA screen of B cell culture supernatants
T2 construct: domain: gp120; also called JR-CSF gp120; JR-CSFgp120

[7] = molecular target: T1, recombinant gp41HxB2; test: ELISA
[8] = molecular target: T2, recombinant, monomeric gp120JR-CSF; test: mAb specificity by ELISA

Binder	IC50 (ug/ml), pseudovirus neutralization, TZM-bl assay [1]	IC50 (ug/ml), pseudovirus neutralization, TZM-bl assay [2]	binding result [3]	IC50 (ug/ml), pseudovirus neutralization, TZM-bl assay [4]	IC50 (ug/ml), pseudovirus neutralization, TZM-bl assay [5]	binding result [6]	binding result [7]	binding result [8]
B1	0.2 µg/mL	0.1 µg/mL	no binding					
B2	0.004 µg/mL	0.09 µg/mL	no binding	0.001 µg/mL	0.006 µg/mL	no binding		
B3							no binding	binds
B4							no binding	binds
B5							no binding	binds
